One data set deals with T1, AV199-237.
T1 sequence: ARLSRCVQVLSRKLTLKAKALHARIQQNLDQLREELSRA

The subject of another data set is T2, AV199-232.
T2 sequence: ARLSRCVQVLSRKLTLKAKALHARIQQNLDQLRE

For the substance lipoprotein lipase (LpL), SIGMA, the “LpL hydrolytic activity (EnzChek fluorogenic TG substrate), peptide pre-incubated with VLDL” value in the data set on AV199-237 is on record as “hydrolytic activity was increased ˜4-fold”. In the data set with AV199-232, the “Km of LpL for substrate, with VLDL, 2.5 µM peptide” value is “substantially improved the Km by almost 8-fold” and the “apparent affinity of LpL for substrate (Michaelis-Menten fit), AV199-232 (2.5 µM) + VLDL (10 µg/ml)” value is on record as “AV199-232+VLDL increases LpL's apparent affinity for substrate by 7.8-fold”. In the data set with apoC-III content of VLDL, the “affinity of LpL for substrate on addition of VLDL (10 µg/ml)” value is given as “The addition of VLDL reduced the enzymes affinity for substrate by 5.3-fold”.

The values are drawn from patent US20170305981.
